Target: Kuenenia stuttgartiensis hydrazine dehydrogenase (Kuenenia stuttgartiensis) (UniProt Q1PW30)
Test: crystal structure

Sequence of UniProt Q1PW30 (Q1PW30 33-582): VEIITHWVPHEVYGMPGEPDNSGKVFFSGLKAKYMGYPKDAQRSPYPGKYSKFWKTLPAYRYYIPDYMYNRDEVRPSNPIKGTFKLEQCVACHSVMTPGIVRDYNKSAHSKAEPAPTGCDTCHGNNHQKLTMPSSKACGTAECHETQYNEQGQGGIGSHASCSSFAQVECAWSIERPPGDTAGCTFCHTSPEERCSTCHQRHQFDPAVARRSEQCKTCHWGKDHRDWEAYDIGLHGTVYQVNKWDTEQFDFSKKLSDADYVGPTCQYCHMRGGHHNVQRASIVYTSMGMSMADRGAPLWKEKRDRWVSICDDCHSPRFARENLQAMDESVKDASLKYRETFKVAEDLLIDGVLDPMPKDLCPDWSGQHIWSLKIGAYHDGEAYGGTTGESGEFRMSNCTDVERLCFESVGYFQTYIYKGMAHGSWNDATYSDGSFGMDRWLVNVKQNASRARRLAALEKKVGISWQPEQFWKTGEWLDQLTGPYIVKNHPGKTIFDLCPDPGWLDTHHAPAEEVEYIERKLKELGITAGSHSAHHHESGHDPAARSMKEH

- stoichiometry N (copies per assembly of 24 HDH monomers): 12
Substance: Kustc1130, endogenous, co-purified with K. stuttgartiensis HDH (from UniProt Q1PW30 33-582) (natural protein)
